Test results as given in PMC5173139, “Dual inhibition of ErbB1 and ErbB2 in cancer by recombinant human prolidase mutant hPEPD-G278D” (Oncotarget, 2016).
Each block holds one molecule with its values, some of them ahead of it.

Assays:
ErbB1 ECD (Homo sapiens) = ErbB1 ECD (Homo sapiens) (UniProt P00533); conditions: cited from earlier work
ErbB2 (Homo sapiens) = ErbB2 (Homo sapiens) (UniProt P04626); conditions: cited from earlier work
[1] = target: human ErbB1 mutant lacking ECD subdomain 4 (aa #481-620) (human) (UniProt P00533); assay: ELISA; as a1 but with lysates of CHO-K1 cells transiently transfected for 24 h with wild-type ErbB1 or a subdomain deletion mutant; equal amounts of ErbB1 protein by immunoblot densitometry
[2] = target: human ErbB1 mutant lacking ECD subdomain 1 (aa #1-165) (human) (UniProt P00533); assay: as above
[3] = target: human ErbB1 mutant lacking ECD subdomain 3 (aa #311-480) (human) (UniProt P00533); assay: as above
[4] = target: T1, human ErbB1, full length, stably expressed in CHO-K1 cells (CHO-K1/ErbB1) (human, UniProt P00533 25-1210); assay: ELISA; wells coated with an antibody to the cytoplasmic tail of ErbB1; serially diluted His-tagged hPEPD or mutant plus CHO-K1/ErbB1 cell lysate (25 ug total protein), 37 C, 2 h; bound PEPD detected by biotin-conjugated anti-His antibody and streptavidin-HRP; CHO-K1 lysate as control; conditions: one partner purified
T1 construct: human ErbB1 (EGF receptor), full length; source: CHO-K1, stably transfected (pCMV6-A-ERBB1-Puro, puromycin selection), in lysate

Molecule: prolidase (PEPD) (from UniProt P12955)
Kd (ErbB1 ECD (Homo sapiens)): 5000 nM | Kd (ErbB2 (Homo sapiens)): 7.3 nM

fold reduction of binding affinity (Kd) against wild-type ErbB1 [1]: 1.4 fold | fold reduction of binding affinity (Kd) against wild-type ErbB1 [2]: 19.2 fold | fold reduction of binding affinity (Kd) against wild-type ErbB1 [3]: 7.4 fold
B1: hPEPD-G278D, enzymatically inactive mutant of recombinant human prolidase (enzyme)
chain: MAAATGPSFWLGNETLKVPLALFALNRQRLCERLRKNPAVQAGSIVVLQGGEETQRYCTDTGVLFRQESFFHWAFGVTEPGCYGVIDVDTGKSTLFVPRLPASHATWMGKIHSKEHFKEKYAVDDVQYVDEIASVLTSQKPSVLLTLRGVNTDSGSVCREASFDGISKFEVNNTILHPEIVECRVFKTDMELEVLRYTNKISSEAHREVMKAVKVGMKEYELESLFEHYCYSRGGMRHSSYTCICGSGENSAVLHYGHAGAPNDRTIQNGDMCLFDMDGEYYCFASDITCSFPANGKFTADQKAVYEAVLRSSRAVMGAMKPGVWWPDMHRLADRIHLEELAHMGILSGSVDAMVQAHLGAVFMPHGLGHFLGIDVHDVGGYPEGVERIDEPGLRSLRTARHLQPGMVLTVEPGIYFIDHLLDEALADPARASFLNREVLQRFRGFGGVRIEEDVVVTDSGIELLTCVPRTVEEIEACMAGCDKAFTPFSGPK

Kd [4]: 17.7 nM
B2: recombinant human prolidase (peptidase D), hPEPD (enzyme, UniProt P12955 1-493, looked up)
chain: MAAATGPSFWLGNETLKVPLALFALNRQRLCERLRKNPAVQAGSIVVLQGGEETQRYCTDTGVLFRQESFFHWAFGVTEPGCYGVIDVDTGKSTLFVPRLPASHATWMGKIHSKEHFKEKYAVDDVQYVDEIASVLTSQKPSVLLTLRGVNTDSGSVCREASFDGISKFEVNNTILHPEIVECRVFKTDMELEVLRYTNKISSEAHREVMKAVKVGMKEYELESLFEHYCYSRGGMRHSSYTCICGSGENSAVLHYGHAGAPNDRTIQNGDMCLFDMGGEYYCFASDITCSFPANGKFTADQKAVYEAVLRSSRAVMGAMKPGVWWPDMHRLADRIHLEELAHMGILSGSVDAMVQAHLGAVFMPHGLGHFLGIDVHDVGGYPEGVERIDEPGLRSLRTARHLQPGMVLTVEPGIYFIDHLLDEALADPARASFLNREVLQRFRGFGGVRIEEDVVVTDSGIELLTCVPRTVEEIEACMAGCDKAFTPFSGPK
notes: source: E. coli, as previously described [13, 17]; not shown: His tag, C-terminal, kept
